Values belong to the molecule of their own block, whether it stands above or below them.
Tests used:
[1] = target: T1, human MMP-9 enzyme active domain E402Q mutant (Homo sapiens, UniProt P14780, E402Q); assay: Size exclusion chromatography binding to hMMP-9(cat)_E402Q_His6; details: 25 μM enzyme, 75 μM inhibitor
T1 construct: an enzyme active domain E402Q mutant (Phe107-Pro449, E402Q) and a His tag; made in house; host or cells: FreeStyle 293F
Method: (§1) With M91005 and M91011 prepared in (1-2), active hMMP-9(cat)_His6 prepared in (2-1-4), and hMMP-9(cat)_E402Q_His6 prepared in (11-3), the binding activity was evaluated by size exclusion chromatography. 25 μM active hMMP-9(cat)_His6 or hMMP-9(cat)_E402Q_His6 and 75 μM active MMP-9-binding peptide or hTIMP-1 (in-house preparation) were mixed, and reacted at 4° C. for 1 hour. After the reaction, 10 μl of the reaction solution was analyzed by size exclusion chromatography. The chromatographic conditions were as follows.
(§2) Detection: Absorbance (280 nm)
(§3) When only active hMMP-9(cat)_His6 was analyzed, the peak of active hMMP-9(cat)_His6 was detected at a retention time of 7.0 minutes (FIG. 53(A)). When a mixture reaction solution of active hMMP-9(cat)_His6 and hTIMP-1 or active MMP-9-binding peptides M91005 or M91011 was analyzed, the retention time of the peak of active hMMP-9(cat)_His6 was shifted to the high molecular weight side (FIG. 53(A)). […] When only human MMP-9(cat)_E402Q_His6 was analyzed, the peak of hMMP-9(cat)_E402Q_His6 was detected at a retention time of 7.1 minutes (FIG. 53(B)). When a mixed reaction solution of human MMP-9(cat)_E402Q_His6 and hTIMP-1 was analyzed, the retention time of the peak of hMMP-9(cat)_E402Q_His6 was shifted to the high molecular weight side (FIG. 53(B)). […] In contrast, when a mixture reaction solution of hMMP-9(cat)_E402Q_His6 and the active MMP-9-binding peptide M91005 or M91011 was analyzed, the retention time of the peak of the hMMP-9(cat)_E402Q_His6 was not changed (FIG. 53(B)). It should be noted that when only hTIMP-1 or the active MMP-9-binding peptides M91005, M91011 was analyzed, the peak of hTIMP-1 was detected at a retention time of 7.3 minutes, the peak of the active MMP-9-binding peptide M91005 was detected at a retention time of 8.2 minutes, and the peak of the active MMP-9-binding peptide M91011 was detected at a retention time of 8.1 minutes (FIG. 53(C)).

[2] = target: T2, active human MMP-9 enzyme active domain (Homo sapiens, UniProt P14780); assay: Size exclusion chromatography binding to active hMMP-9(cat)_His6; design: an enzyme active domain (Phe107-Pro449) and a His tag; made in house; host or cells: FreeStyle 293F; details: 25 μM enzyme, 75 μM inhibitor
Method: as §1, §2, §3

[3] = target: T3, human MMP-9 (active hMMP-9(cat)_His6) (Homo sapiens, UniProt P14780); assay: Human MMP-9 inhibitory activity of active MMP-9-binding peptide derivatives (substrate peptide); type: biochemical; details: 0.6 nM active hMMP-9(cat)_His6
T3 construct: an enzyme active domain (Phe107-Pro449) and a His tag; made in house; host or cells: FreeStyle 293F
Method: The substrate peptide MOCAc-KPLGL-A2pr (Dnp)-AR-NH2 (SEQ ID NO: 30 (FIG. 46)) (PEPTIDE […], INC.; 3226-v) was dissolved in water to 1 mM, and diluted with an assay buffer (50 mM Tris-HCl, 200 mM NaCl, 2 mM CaCl2, pH 7.5) to use at a final concentration of 2.5 to 10 μM. Fifty μl each of the active hMMP-9(cat)_His6 diluted with the assay buffer and the active MMP-9-binding peptide were mixed, and reacted at 37° C. for 1 hour. Then, 100 μl of the substrate diluted with the assay buffer was added, and fluorescence signals (excitation 328 nm/emission 393 nm) were measured with Enspire (PerkinElmer, Inc.). The final concentration of active hMMP-9(cat)_His6 was 0.4 nM, and the final concentration of the active MMP-9-binding peptide was 0.5 to 25 nM. For reactions and measurements, a ProteoSave™ SS96F black plate (Sumitomo Bakelite Co., Ltd.) was used.
According to the method described in (4-1), human MMP-9 inhibitory activity of each of the binding peptides was evaluated with 0.6 nM final concentration of active hMMP-9(cat)_His6 and 0.0015 to 100 nM final concentration of each active MMP-9-binding peptide (FIGS. 11(A), 12(A), and 13(A)).

[4] = target: T2, active human MMP-9 enzyme active domain; assay: ELISA binding to immobilized active human MMP-9 enzyme active domain; details: 1 to 1,000 nM peptide, S-tag detection
Method: (§4) The biotin-labeled pro-hMMP-9(cat)_His6_FLAG_Avi obtained in (2-1-6) or biotin-labeled active hMMP-9(cat)_FLAG_Avi obtained in (2-1-7) was immobilized on a streptavidin coated 96-well plate (Thermo Fisher Scientific). After blocking with 3% BSA, 1 to 1,000 nM of the binding peptides were added, and reacted at room temperature for 1.5 hours. After washing, goat anti-S-Tag HRP conjugated (Bethyl Laboratories, Inc.) was added, and reacted at room temperature for 1 hour. After washing, substrates of ELISA POD substrate A.B.T.S kit (Nacalai Tesque Inc.) were added, and reacted at room temperature. After adding a reaction stop solution, the absorbance at 405 nm was measured with Enspire (PerkinElmer, Inc.), and MMP-9-binding activity of the active MMP-9-binding peptides was evaluated.

[5] = target: T4, pro human MMP-9 enzyme active domain (Homo sapiens, UniProt P14780); assay: ELISA binding to immobilized pro human MMP-9 enzyme active domain; details: 1 to 1,000 nM peptide, S-tag detection
T4 construct: a propeptide (Ala20-Arg106), an enzyme active domain (Phe107-Pro449), a FLAG tag; made in house; host or cells: FreeStyle 293F
Method: as §4

T3 sequence (P14780 107-449): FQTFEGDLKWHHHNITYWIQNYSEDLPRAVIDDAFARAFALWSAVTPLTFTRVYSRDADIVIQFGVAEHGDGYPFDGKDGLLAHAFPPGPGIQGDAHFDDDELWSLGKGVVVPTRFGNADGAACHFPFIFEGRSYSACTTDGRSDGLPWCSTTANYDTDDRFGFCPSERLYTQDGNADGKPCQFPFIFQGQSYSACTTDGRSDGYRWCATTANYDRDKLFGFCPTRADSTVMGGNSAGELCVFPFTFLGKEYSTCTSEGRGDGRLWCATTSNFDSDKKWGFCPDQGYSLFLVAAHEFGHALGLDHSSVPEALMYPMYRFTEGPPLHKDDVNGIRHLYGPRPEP
T2 sequence (P14780 107-449): as above
T4 sequence (P14780 20-449): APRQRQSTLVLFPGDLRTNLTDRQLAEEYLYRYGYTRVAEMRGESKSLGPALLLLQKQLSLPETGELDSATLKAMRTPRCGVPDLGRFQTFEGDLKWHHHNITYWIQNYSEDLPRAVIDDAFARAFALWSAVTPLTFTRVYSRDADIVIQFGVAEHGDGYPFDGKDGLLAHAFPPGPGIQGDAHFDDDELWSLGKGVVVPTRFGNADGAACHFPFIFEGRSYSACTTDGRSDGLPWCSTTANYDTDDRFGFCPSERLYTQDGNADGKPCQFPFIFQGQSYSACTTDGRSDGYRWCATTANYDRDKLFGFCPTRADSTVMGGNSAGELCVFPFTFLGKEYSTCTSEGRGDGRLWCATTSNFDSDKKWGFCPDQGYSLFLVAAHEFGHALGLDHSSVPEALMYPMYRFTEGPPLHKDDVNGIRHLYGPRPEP
T1 sequence (P14780 107-449 E402Q): as the sequence (P14780 107-449) above, with E296Q counted along it

Molecule: hTIMP-1: hTIMP-1 (in-house preparation) [reference compound]
binding to human MMP-9 enzyme active domain E402Q mutant (peak shift) [1]: binds to the human MMP-9 enzyme active domain E402Q mutant
binding to active human MMP-9 enzyme active domain (peak shift) [2]: bind to the active human MMP-9 enzyme active domain

human MMP-9 inhibitory activity IC50 compared with parent [3]: equivalent to that of M91002
B1: M91002_G3: C-terminal derivative of M91002: Stag+linker 2 at the N-terminal, C-terminal 3-mer Gly-Gly-Gly (protein)
chain: GSGMKETAAAKFERQHMDSPDLGTDDDDKAMAENLYFQGDPQFGLFSKYRTPNCRTGRGPACQMGFQPVCGSDMSTYANECTLCMKIREGGHNIKIIRNGPCGGG

B2: M91005_D1G-Fc-01: N-terminal derivative Fc conjugate: Stag+linker 1, M91005_D1G, C-terminal 6-mer, G4S linker and human IgG1 Fc (protein)
chain: GSGMKETAAAKFERQHMDSPDLGTDDDDKAMADIGSANSGPQFGLFSKYRTPNCRKRGGPSCQMSYNPVCGSDMSTYANECTLCMKIREGGHNIKIIRNGPCGASAAAGGGGSDKTHTCPPCPAPELLGGPSVFLFPPKPKDTLMISRTPEVTCVVVDVSHEPEVKFNWYVDGVEVHNAKTKPREEQYNSTYRVVSVLTVLHQDWLNGKEYCKVSNKALPAPIEKTISKAKGQPREPQVYTLPPSREEMTKNQVSLTCLVGFYPSDIAVEWESNGQPENNYKTTPPVLDSDGSFFLYSKLTVDKSRWQQNVFSCSVMHEALHNHYTQKSLSLSPGK
human MMP-9 inhibitory activity IC50 compared with parent [3]: M91005-Fc-01 and M91005_D1G-Fc-01 are equivalent

active human MMP-9-binding activity (EC50) [4]: did not bind
pro human MMP-9-binding activity [5]: did not bind
B3: wild type SPINK2: Serine Protease Inhibitor Kazal-type 2, human, SEQ ID NO: 1 (FIG. 15) (protein, listed as Homo sapiens)
chain: DPQFGLFSKYRTPNCSQYRLPGCPRHFNPVCGSDMSTYANECTLCMKIREGGHNIKIIRNGPC

human MMP-9 inhibitory activity IC50 compared with parent [3]: equivalent to that of M91002
B4: M91002_G2: C-terminal derivative of M91002: Stag+linker 2 at the N-terminal, C-terminal 2-mer Gly-Gly (protein)
chain: GSGMKETAAAKFERQHMDSPDLGTDDDDKAMAENLYFQGDPQFGLFSKYRTPNCRTGRGPACQMGFQPVCGSDMSTYANECTLCMKIREGGHNIKIIRNGPCGG

human MMP-9 inhibitory activity IC50 compared with parent [3]: equivalent to that of M91002
B5: M91002_G0: C-terminal derivative of M91002: Stag+linker 2 at the N-terminal, no C-terminal addition (protein)
chain: GSGMKETAAAKFERQHMDSPDLGTDDDDKAMAENLYFQGDPQFGLFSKYRTPNCRTGRGPACQMGFQPVCGSDMSTYANECTLCMKIREGGHNIKIIRNGPC
modifications: linker; binder
notes: C-terminal derivative of M91002: Stag+linker 2 at the N-terminal, no C-terminal addition

— US12043658B2, “Conjugate comprising an active MMP-9-binding peptide” (Daiichi Sankyo Company, Limited, priority 2017, dated 2024)
